# According to the supplement of paper PMC7877785:
# ± gives the uncertainty stated by the source.
# Assay: self-splicing fitness, log relative to wild type (ln ratio); higher = more splicing; Tetrahymena group I intron in knt gene, E. coli kanamycin selection, DiMSum; sequences stand for … in CUCUCU…GGAGGGAAAAGUUAUCAGGCAUGCACCUGGUAGCUAGUCUUUAAACCAAUAGAUUGCAUCGGUUUAAAAGGCAAGACCGUCAAAUUGCGGGAAAGGGGUCAACAGCCGUUCAGUACCAAGUCUCAGGGGAAACUUUGAGAUGGCCUUGCAAAGGGUAUGGUAAUAAGCUGACGGACAUGGUCCUAACCACGCAGCCAAGUCCUAAGUCAACAGAUCUUCUGUUGAUAUGGAUGCAGUUCACAGACUAAAUGUCGGUCGGGGAAGAUGUAUUCUUCUCAUAAGAUAUAGUCGGACCUCUCCUUAAUGGGAGCUAGCGGAUGAAGUGAUGCAACACUGGAGCCGCUGGGAACUAAUUUGUAUGCGAAAGUAUAUUGAUUAGUUUUGGAGUACUCGUGGUCG
# How it was run: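 A randomised library covering all eight P1ex-region intron nucleotides was built with the intron in the knt kanamycin-resistance gene on pET-22b(+) and held in E. coli BL21(DE3). Cells were grown overnight at 37°C or 30°C on LB agar, with or without 25 μg/mL kanamycin, plus 100 μg/mL carbenicillin, 50 μM IPTG and 0.2% rhamnose, and pooled colonies were amplicon-sequenced on an Illumina HiSeq 2500. DiMSum fitness is the error-weighted combination of wild-type-normalised replicate fold changes, kanamycin versus none.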
Sequence,self-splicing fitness (ln) (30 °C),self-splicing fitness (ln) (37 °C)
GGCAAGCAAUAUUACGCACC,-2.15 ± 0.32,-2.31 ± 0.24
CCGUAGCAAUAUUACGGUAA,-3.17 ± 0.24,-3.3 ± 0.26
AACCAGCAAUAUUACGGCGU,0.196 ± 0.054,0.259 ± 0.068
CGAAAGCAAUAUUACGGCUG,0.127 ± 0.11,0.181 ± 0.13
UAAUAGCAAUAUUACGGGGU,-3.73 ± 0.42,-1.38 ± 0.45
CCCUAGCAAUAUUACGCCUU,-3.23 ± 0.16,-3.08 ± 0.4
CUUAAGCAAUAUUACGAAUU,-3.26 ± 0.22,-0.957 ± 0.17
CAACAGCAAUAUUACGGGCG,-0.0253 ± 0.049,0.154 ± 0.062
AACUAGCAAUAUUACGCCCU,0.324 ± 0.067,-0.165 ± 0.08
CUACAGCAAUAUUACGCAAG,-2.61 ± 0.15,-1.45 ± 0.19
UUUUAGCAAUAUUACGGGGA,-1.56 ± 0.16,-0.366 ± 0.14
AGCCAGCAAUAUUACGGCAU,-1.31 ± 0.099,-1.15 ± 0.12
UUCUAGCAAUAUUACGCGGG,-3.28 ± 0.23,-2.29 ± 0.22
ACACAGCAAUAUUACGUUCG,-0.803 ± 0.05,-1.13 ± 0.064
AGGGAGCAAUAUUACGGGUG,-4.12 ± 0.2,-2.54 ± 0.29
AGGCAGCAAUAUUACGUUUA,-1.33 ± 0.072,-0.496 ± 0.08
AAACAGCAAUAUUACGUAGU,-1.64 ± 0.054,-1.62 ± 0.077
CAGUAGCAAUAUUACGCUUU,-4.27 ± 0.24,-1.93 ± 0.17
GAUUAGCAAUAUUACGAUUG,-1.71 ± 0.13,-0.919 ± 0.18
UGAAAGCAAUAUUACGCAAU,-2.16 ± 0.24,0.457 ± 0.23
GCUAAGCAAUAUUACGUCAA,-1.5 ± 0.26,-1.76 ± 0.32

Sequence,self-splicing fitness (ln) (30 °C),self-splicing fitness (ln) (37 °C)
CCUCAGCAAUAUUACGACGC,-3.56 ± 0.4,-2.43 ± 0.45
GUGGAGCAAUAUUACGCCGA,-3.41 ± 0.43,-1.25 ± 0.28
GGACAGCAAUAUUACGUUCA,-0.478 ± 0.086,-0.434 ± 0.1
AUGUAGCAAUAUUACGCAUU,-3.93 ± 0.18,-2.89 ± 0.23
CGGUAGCAAUAUUACGAUCG,-2.68 ± 0.22,-2.27 ± 0.32
CGGUAGCAAUAUUACGAACA,-0.899 ± 0.16,-0.395 ± 0.2
GCUCAGCAAUAUUACGACAC,-0.687 ± 0.098,0.564 ± 0.15
UGGUAGCAAUAUUACGUACC,-2.93 ± 0.42,-2.31 ± 0.49
CCAGAGCAAUAUUACGCUAA,-2.74 ± 0.24,-2.57 ± 0.24
CGAUAGCAAUAUUACGAACC,-2.68 ± 0.27,-0.913 ± 0.28
GGUGAGCAAUAUUACGGCGU,-1.29 ± 0.14,-0.494 ± 0.17
GCCCAGCAAUAUUACGCACU,-0.532 ± 0.075,0.216 ± 0.12
GUGUAGCAAUAUUACGCCUA,-1.92 ± 0.26,-0.813 ± 0.24
GAGGAGCAAUAUUACGAGCA,-3.52 ± 0.48,-2.4 ± 0.46
AGUUAGCAAUAUUACGUCAG,-3.99 ± 0.29,-3.25 ± 0.19
UUUCAGCAAUAUUACGAGGC,-2.12 ± 0.22,–
UUCUAGCAAUAUUACGAACA,–,-0.35 ± 0.37
AUUGAGCAAUAUUACGCACU,-0.165 ± 0.14,-0.756 ± 0.15
AUCGAGCAAUAUUACGUACU,-1.09 ± 0.15,-0.28 ± 0.17
UGCCAGCAAUAUUACGCUGG,-3.35 ± 0.24,-2.63 ± 0.28
AGAAAGCAAUAUUACGCAGA,-2.03 ± 0.14,-1.72 ± 0.13

Sequence,self-splicing fitness (ln) (30 °C),self-splicing fitness (ln) (37 °C)
UAUCAGCAAUAUUACGACCU,-0.529 ± 0.071,0.112 ± 0.1
UAUGAGCAAUAUUACGGCCA,–,-1.18 ± 0.28
GUUAAGCAAUAUUACGCACC,-2.89 ± 0.3,-2.13 ± 0.32
GAAGAGCAAUAUUACGCUAU,-2.39 ± 0.24,-2.79 ± 0.48
ACAGAGCAAUAUUACGCGCU,–,-1.91 ± 0.2
AUCUAGCAAUAUUACGGUGC,-3.09 ± 0.22,-1.4 ± 0.21
GCACAGCAAUAUUACGGGCG,-1.4 ± 0.071,0.0832 ± 0.081
GUCUAGCAAUAUUACGCUUU,-0.366 ± 0.066,-0.192 ± 0.08
ACUCAGCAAUAUUACGGACG,-0.251 ± 0.069,-0.156 ± 0.09
GCACAGCAAUAUUACGUCUU,-0.723 ± 0.053,0.267 ± 0.064
AGCGAGCAAUAUUACGUUUU,-3.47 ± 0.28,-1.66 ± 0.22
UUAAAGCAAUAUUACGCCGG,-0.245 ± 0.12,0.421 ± 0.18
GAUUAGCAAUAUUACGCUUA,-1.22 ± 0.13,-0.752 ± 0.095
AGUGAGCAAUAUUACGCGAA,-2.36 ± 0.32,-1.56 ± 0.29
GACAAGCAAUAUUACGAACA,-1.52 ± 0.13,-0.000414 ± 0.11
GACCAGCAAUAUUACGUGGG,-3.64 ± 0.12,-2.47 ± 0.12
GUAGAGCAAUAUUACGAUGA,-1.5 ± 0.1,-0.479 ± 0.12
GCGGAGCAAUAUUACGGUAC,–,-2.04 ± 0.36
GGCCAGCAAUAUUACGAUUU,-1.9 ± 0.12,-0.659 ± 0.13
GACGAGCAAUAUUACGAGCC,-2.73 ± 0.33,–
